Drawing on article doi:10.1101/577460, this text covers half-maximal scattering concentration (MT bundling) and half maximal concentration (MT bundling) for two substances.

This assay has as its target microtubules (porcine brain Tubulin) (porcine (brain)) (UniProt P02550). Kind of assay: turbidimetry.

Sequence of LEM2_(1-208) (Q8NC56 1-208): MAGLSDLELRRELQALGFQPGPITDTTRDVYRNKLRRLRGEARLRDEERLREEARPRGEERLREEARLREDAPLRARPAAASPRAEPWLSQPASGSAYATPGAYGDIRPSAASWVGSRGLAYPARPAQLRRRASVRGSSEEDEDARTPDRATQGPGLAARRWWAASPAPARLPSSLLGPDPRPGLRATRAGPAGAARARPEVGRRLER
Sequence of LEM2_(188-212) peptide (Q8NC56 188-212): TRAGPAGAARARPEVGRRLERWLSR

“LEM2_(1-208) (from UniProt Q8NC56 1-208) (domain or fragment)” came in with a half-maximal scattering concentration (MT bundling) of 1.3 µM. For “LEM2_(188-212) peptide (from UniProt Q8NC56 188-212)”, the half maximal concentration (MT bundling) was found to be 85.1 µM.
